Data: US20210032334A1 (Dana-Farber, published 2021)

Molecular target: T1, full-length murine BTNL2 expressed on 300.19 cells (mouse)
T1 construct: No signal peptide limits are stated; also called mBTNL2; mouse BTNL2
T1 chain: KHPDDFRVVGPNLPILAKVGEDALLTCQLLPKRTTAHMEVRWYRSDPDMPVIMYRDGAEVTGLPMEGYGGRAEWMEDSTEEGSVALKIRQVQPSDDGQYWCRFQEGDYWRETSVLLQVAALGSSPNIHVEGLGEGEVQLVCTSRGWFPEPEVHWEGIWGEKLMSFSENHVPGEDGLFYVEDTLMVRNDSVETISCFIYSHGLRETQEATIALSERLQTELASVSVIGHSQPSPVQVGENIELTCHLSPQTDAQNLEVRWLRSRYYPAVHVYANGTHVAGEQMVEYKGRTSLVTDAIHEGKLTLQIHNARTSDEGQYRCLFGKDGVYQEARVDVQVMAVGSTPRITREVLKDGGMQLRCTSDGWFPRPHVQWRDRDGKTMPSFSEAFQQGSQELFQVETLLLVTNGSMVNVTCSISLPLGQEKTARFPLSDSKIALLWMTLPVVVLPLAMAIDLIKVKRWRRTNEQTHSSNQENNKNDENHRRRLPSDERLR
Experiment: flow cytometry, cell binding on 300.19 cells expressing full-length mBTNL2
Method: All rat anti-mouse BTNL2 mAbs were tested for reactivity with specific Ig domains of BTNL2 by flow cytometry on 300.19 cells transfected with full length murine BTNL2 cDNA, murine BTLN2 (first IgV domain)-murine PD-L1 (IgC, transmembrane and cytoplasmic domains, or BTNL2 (first IgV domain and 2nd Ig domain and short exon 4)-human TIM-1 mucin-transmembrane-cytoplasmic domains and for lack of reactivity with untransfected 300.19 cells. In particular, mouse pre-B cell line 300.19 cells were transfected by electroporation with full length murine BTNL2 cDNA, murine BTLN2 (first IgV domain)-murine PD-L1 (IgC, transmembrane and cytoplasmic domains, or BTNL2 (first IgV domain and 2nd Ig domain and short exon 4)-human TIM-1 mucin-transmembrane-cytoplasmic domains in the pEFGF-Puro expression vector. Cells were selected in media containing puromycin, sorted, and subcloned. […] Cells were stained with target antibodies and isotype controls using standard flow cytometry procedures, and analyzed on a FACSCanto (BD Biosciences) and FlowJo 9.2 software (TreeStar). […]
A number of anti-BTNL2 monoclonal antibodies were generated and analyzed (see FIGS. 3C-3D and Table 3 below for details), including extensive analysis of two exemplary anti-BTNL2 monoclonal antibodies that were prepared in rat against mouse BTNL2 (mBTNL2). […]

EC50: 0.054 µg/mL
B1: anti-mouse BTNL2 monoclonal antibody clone 311.8A7 (antibody, rat IgG1, V domains shown)
VH: EVRLVESGGGLVQPGRSLKLSCAASGFTFRIFYMAWVRQSPTKGLEWVAYISAGSDFTYYRDSVKGRFTISRDDAKSTLYLEMDSLRSEDTATYHCTTGYRYNFAYWGQGTLVTVSS
VL: DIQLTQSPSSLPASLGERVTISCRSSQDINSHLNWYQQKPDGTIKALIYQTSNLQSGVPSRFSGSGSGADYSLTISSLEPEDFAIFHCQQDADFPYTFGAGTKLELK
notes: Rat IgG1 (kappa) from a hybridoma, 311 series
